Measurements as given in publication PMC3000357 (PLoS Genetics, 2010).
Blank lines part the entries; values can stand above or below the binder they belong to.

Columns and labels:
SSBΔ6 = target: T1, SSBΔ6 (Bacillus subtilis, UniProt P37455 1-166); assay: pull-down on ssDNA magnetic beads; 50 pmol oligo, 80 pmol SSBΔ6; 20 mM Tris-HCl pH 7.5, 200 mM NaCl, 20 °C, 800 rpm; beads washed in same buffer; settings: protein: recombinant; chain copies: 4; label: 5' biotin, on streptavidin magnetic beads; single strand
T1 sequence: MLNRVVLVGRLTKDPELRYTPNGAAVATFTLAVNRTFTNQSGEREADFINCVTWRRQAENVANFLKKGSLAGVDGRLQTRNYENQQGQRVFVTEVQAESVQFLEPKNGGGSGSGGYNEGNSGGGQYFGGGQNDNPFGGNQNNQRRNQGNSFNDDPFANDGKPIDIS

SSBΔ35 = target: T2, SSBΔ35 (Bacillus subtilis, UniProt P37455 1-137); assay: pull-down on ssDNA magnetic beads; 20 mM Tris-HCl pH 7.5, 200 mM NaCl, 20 °C, 800 rpm; beads washed in same buffer; settings: protein: recombinant; chain copies: 4; label: 5' biotin, on streptavidin magnetic beads; single strand
T2 sequence: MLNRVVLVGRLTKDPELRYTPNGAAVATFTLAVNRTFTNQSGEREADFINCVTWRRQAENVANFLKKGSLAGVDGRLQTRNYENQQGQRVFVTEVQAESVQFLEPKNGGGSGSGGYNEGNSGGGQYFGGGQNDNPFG

SSB = target: T3, SSB (Bacillus subtilis, UniProt P37455 1-172); assay: pull-down on ssDNA magnetic beads; 50 pmol oligo, 80 pmol SSB; 20 mM Tris-HCl pH 7.5, 200 mM NaCl, 20 °C, 800 rpm; beads washed in same buffer; settings: protein: recombinant; chain copies: 4; label: 5' biotin, on streptavidin magnetic beads; single strand
T3 sequence: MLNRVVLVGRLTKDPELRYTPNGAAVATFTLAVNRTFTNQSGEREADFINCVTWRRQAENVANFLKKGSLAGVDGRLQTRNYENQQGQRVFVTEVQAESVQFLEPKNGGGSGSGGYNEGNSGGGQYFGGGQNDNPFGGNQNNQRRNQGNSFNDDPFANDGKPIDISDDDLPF

RecO, purified = target: T4, RecO, purified (Bacillus subtilis, UniProt P42095 1-255); assay: pull-down; streptavidin magnetic beads with a biotinylated 65-mer ssDNA coated by purified SSB or SSBΔ6 (80 pmol of tetramer; SSBΔ35: 100 pmol of tetramer, 60 pmol of tested protein); purified protein added in 20 mM Tris-HCl pH 7.5, 200 mM NaCl, 30 min, 20°C; SDS-PAGE, Coomassie; settings: both partners purified
T4 construct: RecO recombination mediator protein of Bacillus subtilis; source: E. coli, purified (procedure in Text S1)
T4 sequence (looked up): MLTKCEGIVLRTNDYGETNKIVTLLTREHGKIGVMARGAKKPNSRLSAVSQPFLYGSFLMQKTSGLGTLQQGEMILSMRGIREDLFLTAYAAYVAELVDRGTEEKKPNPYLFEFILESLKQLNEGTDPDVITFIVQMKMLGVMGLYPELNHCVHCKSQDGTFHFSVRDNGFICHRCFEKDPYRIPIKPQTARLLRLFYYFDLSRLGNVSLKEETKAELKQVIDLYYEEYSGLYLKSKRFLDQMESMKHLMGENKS

RecQ, purified = target: T5, RecQ, purified (Bacillus subtilis, UniProt O34748 1-591); assay: as above; settings: both partners purified
T5 construct: RecQ DNA helicase (initially annotated YocI) of Bacillus subtilis; also called YocI; source: E. coli, purified (procedure in Text S1)
T5 sequence (looked up): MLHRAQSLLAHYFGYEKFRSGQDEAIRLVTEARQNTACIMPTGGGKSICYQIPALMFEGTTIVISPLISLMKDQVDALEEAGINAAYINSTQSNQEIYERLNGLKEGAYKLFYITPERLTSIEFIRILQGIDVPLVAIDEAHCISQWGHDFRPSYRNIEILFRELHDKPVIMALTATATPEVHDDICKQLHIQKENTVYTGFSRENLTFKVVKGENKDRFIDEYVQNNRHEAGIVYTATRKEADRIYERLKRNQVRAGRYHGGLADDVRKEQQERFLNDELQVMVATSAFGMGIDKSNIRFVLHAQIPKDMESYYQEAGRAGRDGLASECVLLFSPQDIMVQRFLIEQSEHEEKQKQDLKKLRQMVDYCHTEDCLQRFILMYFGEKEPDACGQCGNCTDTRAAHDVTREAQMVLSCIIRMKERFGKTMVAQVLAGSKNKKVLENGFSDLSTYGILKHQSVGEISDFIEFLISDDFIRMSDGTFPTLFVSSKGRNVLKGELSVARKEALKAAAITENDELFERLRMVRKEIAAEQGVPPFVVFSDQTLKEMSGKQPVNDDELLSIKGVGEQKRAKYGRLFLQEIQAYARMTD

PriA, purified = target: T6, PriA, purified (Bacillus subtilis, UniProt P94461 1-805); assay: as above; settings: both partners purified
T6 construct: PriA, primary replication restart protein (DNA helicase) of Bacillus subtilis; source: E. coli, purified (procedure in Text S1)
T6 sequence (looked up): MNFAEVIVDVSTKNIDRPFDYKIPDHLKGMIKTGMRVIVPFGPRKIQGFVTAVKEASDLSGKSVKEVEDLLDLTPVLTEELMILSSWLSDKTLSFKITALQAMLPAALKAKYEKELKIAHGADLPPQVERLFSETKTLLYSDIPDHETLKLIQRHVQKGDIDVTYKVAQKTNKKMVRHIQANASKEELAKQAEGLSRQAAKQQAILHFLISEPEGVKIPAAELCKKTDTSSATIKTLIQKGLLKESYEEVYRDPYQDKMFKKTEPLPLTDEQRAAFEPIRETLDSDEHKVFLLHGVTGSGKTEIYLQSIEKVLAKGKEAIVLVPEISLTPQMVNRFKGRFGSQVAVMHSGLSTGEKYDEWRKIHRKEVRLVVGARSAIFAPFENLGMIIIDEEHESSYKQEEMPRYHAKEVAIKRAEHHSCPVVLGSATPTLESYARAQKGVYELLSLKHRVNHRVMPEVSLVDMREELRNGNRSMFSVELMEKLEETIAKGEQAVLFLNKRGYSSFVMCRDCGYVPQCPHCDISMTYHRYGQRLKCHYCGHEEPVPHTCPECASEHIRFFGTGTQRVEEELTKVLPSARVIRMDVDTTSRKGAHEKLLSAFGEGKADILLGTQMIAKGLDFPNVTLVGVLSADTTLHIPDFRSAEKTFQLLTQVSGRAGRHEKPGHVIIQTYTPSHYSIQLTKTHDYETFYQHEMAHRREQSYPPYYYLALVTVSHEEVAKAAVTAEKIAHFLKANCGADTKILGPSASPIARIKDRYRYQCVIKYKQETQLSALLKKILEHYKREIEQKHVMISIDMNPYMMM

RecG, purified = target: T7, RecG, purified (Bacillus subtilis, UniProt O34942 1-682); assay: as above; settings: both partners purified
T7 construct: RecG DNA helicase of Bacillus subtilis; source: E. coli, purified (procedure in Text S1)
T7 sequence (looked up): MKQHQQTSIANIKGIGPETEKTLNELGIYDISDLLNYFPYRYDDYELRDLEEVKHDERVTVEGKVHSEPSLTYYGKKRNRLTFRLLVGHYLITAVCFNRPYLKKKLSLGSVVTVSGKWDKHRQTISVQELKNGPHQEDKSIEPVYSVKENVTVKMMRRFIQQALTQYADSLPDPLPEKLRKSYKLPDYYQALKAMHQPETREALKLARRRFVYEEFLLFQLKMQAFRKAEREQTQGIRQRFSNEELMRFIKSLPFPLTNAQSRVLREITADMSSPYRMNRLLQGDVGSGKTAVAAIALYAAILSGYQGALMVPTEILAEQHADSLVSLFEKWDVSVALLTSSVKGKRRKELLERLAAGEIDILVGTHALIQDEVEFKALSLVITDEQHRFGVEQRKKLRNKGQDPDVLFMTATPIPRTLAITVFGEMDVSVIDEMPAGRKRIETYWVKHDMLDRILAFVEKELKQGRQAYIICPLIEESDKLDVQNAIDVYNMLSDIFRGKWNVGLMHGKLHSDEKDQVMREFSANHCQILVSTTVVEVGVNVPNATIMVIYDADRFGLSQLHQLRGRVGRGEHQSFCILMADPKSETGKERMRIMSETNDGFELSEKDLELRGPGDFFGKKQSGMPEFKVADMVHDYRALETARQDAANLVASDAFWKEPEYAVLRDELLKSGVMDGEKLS

[1] = target: T8, YpbB/RecS complex, purified (Bacillus subtilis, UniProt P50728 1-352; P50729 1-496); assay: SEC; purified RecS (4 µM) or YpbB/RecS (4 µM) mixed on ice with SSB (16 µM or 40 µM, as monomers) and loaded onto a gel-filtration column; fractions on SDS-PAGE, Coomassie; settings: both partners purified
T8 construct: YpbB of Bacillus subtilis; RecS (YpbC) of Bacillus subtilis; Equivalent amounts of YpbB and RecS appear to be present in the complex
T8 sequence (looked up) 1: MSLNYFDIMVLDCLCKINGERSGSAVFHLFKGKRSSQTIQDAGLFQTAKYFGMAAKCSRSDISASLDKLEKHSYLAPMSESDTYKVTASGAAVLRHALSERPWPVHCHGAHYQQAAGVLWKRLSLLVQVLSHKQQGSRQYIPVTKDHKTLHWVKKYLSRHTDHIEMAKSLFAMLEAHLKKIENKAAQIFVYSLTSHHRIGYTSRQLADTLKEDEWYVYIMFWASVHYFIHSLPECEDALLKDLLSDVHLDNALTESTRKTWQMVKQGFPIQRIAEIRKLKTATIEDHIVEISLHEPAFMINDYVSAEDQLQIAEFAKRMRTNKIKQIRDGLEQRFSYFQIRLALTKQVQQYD
T8 sequence (looked up) 2: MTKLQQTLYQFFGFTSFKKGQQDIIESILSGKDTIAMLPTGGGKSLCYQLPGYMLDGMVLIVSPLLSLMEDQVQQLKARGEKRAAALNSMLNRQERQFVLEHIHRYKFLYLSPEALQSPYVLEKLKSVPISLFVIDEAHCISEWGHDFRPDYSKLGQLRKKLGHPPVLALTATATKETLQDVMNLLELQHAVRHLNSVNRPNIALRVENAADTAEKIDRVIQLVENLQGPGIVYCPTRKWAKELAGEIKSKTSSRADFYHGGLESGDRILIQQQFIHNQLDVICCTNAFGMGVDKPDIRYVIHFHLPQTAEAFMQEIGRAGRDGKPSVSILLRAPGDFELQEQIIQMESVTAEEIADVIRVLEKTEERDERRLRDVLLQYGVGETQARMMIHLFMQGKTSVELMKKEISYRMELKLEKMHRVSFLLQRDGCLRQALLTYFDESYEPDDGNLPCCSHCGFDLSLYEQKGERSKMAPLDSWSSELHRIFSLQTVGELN

RecS, purified = target: T9, RecS, purified (Bacillus subtilis, UniProt P50729 1-496); assay: as above; settings: both partners purified
T9 construct: RecS (also annotated YpbC), RecQ paralogue of Bacillus subtilis; theoretical mass 57 kDa; also called YpbC; source: E. coli, purified (procedure in Text S1)
T9 sequence (looked up): T8 sequence (looked up) 2

B1: 65-mer biotinylated ssDNA oligonucleotide (ssDNA)
DNA: CGTCGTTTTACAACGTCGTGACTGGGAAAACCCTGGCGTTACCCAACTTAATCGCCTTGCAGCA
modifications: biotin-TEG
binding result (SSBΔ6): binds | binding result (SSBΔ35): binds | binding result (SSB): binds

binding result (RecO, purified): binds | binding result (RecQ, purified): binds | binding result (PriA, purified): binds | binding result (RecG, purified): binds | binding result [1]: binds
B2: Bacillus subtilis Single-Stranded DNA Binding protein (SSB), purified (natural protein, UniProt P37455 1-172, looked up)
chain: T3 sequence
notes: Used as a tetramer; source: E. coli, purified (procedure in Text S1)

binding result (RecS, purified): binds
B3: YpbB, produced in E. coli with RecS (natural protein, Bacillus subtilis, UniProt P50728 1-352, looked up)
chain: T8 sequence (looked up) 1
notes: YpbB, protein of unknown function of Bacillus subtilis, encoded immediately upstream of recS; Could not be prepared as a soluble protein alone; source: E. coli, purified only as a complex with RecS (procedure in Text S1)
